Source: the supplement of paper PMC9112550, “Optimization of the antimicrobial peptide Bac7 by deep mutational scanning” (BMC Biology, 2022)

System: Escherichia coli TOP10
Assay: shrunken log2 fold change of peptide-encoding DNA abundance (4.5 h post-induction vs induction); higher = less antimicrobial activity (less host growth inhibition)
Details: time post-induction: 4.5 h; library: site-saturation at positions 5, 18, 19, 20
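Further: peptides expressed intracellularly from a pBAD plasmid library in pooled LB shake-flask culture, induced with 0.3% L-arabinose, DNA abundance read by NGS, three biological replicates, DESeq2 with apeglm shrinkage.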

| Sequence | shrunken log2 fold change |
| --- | --- |
| RRIRERPPRLPRPRPRPMDLPRP | -0.199 |
| RRIRERPPRLPRPRPRPWTFPRP | -0.292 |
| RRIRMRPPRLPRPRPRPCCWPRP | 0.787 |
| RRIRQRPPRLPRPRPRPYYFPRP | -0.661 |
| RRIRERPPRLPRPRPRPQFTPRP | -0.472 |
| RRIRPRPPRLPRPRPRPNVLPRP | -0.312 |
| RRIRIRPPRLPRPRPRPWHGPRP | -0.0996 |
| RRIRVRPPRLPRPRPRPIHCPRP | 0.0605 |
| RRIRQRPPRLPRPRPRPTRKPRP | -0.0205 |
| RRIRTRPPRLPRPRPRPRTAPRP | 2.87 |
| RRIRARPPRLPRPRPRPWPWPRP | 0.261 |
| RRIRMRPPRLPRPRPRPLHRPRP | 0.304 |
| RRIRIRPPRLPRPRPRPLMGPRP | -0.166 |
| RRIRSRPPRLPRPRPRPYACPRP | -0.0148 |
| RRIRPRPPRLPRPRPRPKPFPRP | 0.129 |
| RRIRGRPPRLPRPRPRPNRPPRP | -0.211 |
| RRIRARPPRLPRPRPRPPAGPRP | 0.883 |
| RRIRGRPPRLPRPRPRPEKGPRP | 0.136 |
| RRIRKRPPRLPRPRPRPNFNPRP | -0.0705 |
| RRIRRRPPRLPRPRPRPRKTPRP | 0.615 |
| RRIRFRPPRLPRPRPRPMVPPRP | 0.0354 |
| RRIRPRPPRLPRPRPRPVYYPRP | -0.348 |
| RRIRTRPPRLPRPRPRPELLPRP | 0.39 |
| RRIRCRPPRLPRPRPRPRTCPRP | 0.0191 |
| RRIRIRPPRLPRPRPRPPVPPRP | 0.233 |

| Sequence | shrunken log2 fold change |
| --- | --- |
| RRIRGRPPRLPRPRPRPKCFPRP | 0.852 |
| RRIRCRPPRLPRPRPRPETGPRP | -0.0271 |
| RRIRCRPPRLPRPRPRPMQLPRP | -0.239 |
| RRIRARPPRLPRPRPRPKDHPRP | 0.175 |
| RRIRPRPPRLPRPRPRPINFPRP | -0.168 |
| RRIRVRPPRLPRPRPRPKNDPRP | 0.011 |
| RRIRKRPPRLPRPRPRPMLKPRP | 0.954 |
| RRIRHRPPRLPRPRPRPRLWPRP | 0.63 |
| RRIRTRPPRLPRPRPRPIGKPRP | 0.0128 |
| RRIRARPPRLPRPRPRPCTTPRP | 0.184 |
| RRIRFRPPRLPRPRPRPHAHPRP | -0.0397 |
| RRIRERPPRLPRPRPRPLYFPRP | -0.764 |
| RRIRGRPPRLPRPRPRPDSPPRP | 0.136 |
| RRIRNRPPRLPRPRPRPKIRPRP | -0.0344 |
| RRIRIRPPRLPRPRPRPGSCPRP | 0.968 |
| RRIRDRPPRLPRPRPRPMHWPRP | 0.591 |
| RRIRERPPRLPRPRPRPDTLPRP | -0.00753 |
| RRIRYRPPRLPRPRPRPKMEPRP | -0.529 |
| RRIRLRPPRLPRPRPRPFRVPRP | 0.128 |
| RRIRGRPPRLPRPRPRPKNGPRP | 0.0583 |
| RRIRQRPPRLPRPRPRPWKNPRP | 0.033 |
| RRIRQRPPRLPRPRPRPQGWPRP | -0.151 |
| RRIRHRPPRLPRPRPRPIKPPRP | -0.236 |
| RRIRCRPPRLPRPRPRPFKEPRP | -0.342 |
| RRIRSRPPRLPRPRPRPCEEPRP | 0.00181 |

| Sequence | shrunken log2 fold change |
| --- | --- |
| RRIRYRPPRLPRPRPRPKDGPRP | -0.613 |
| RRIRSRPPRLPRPRPRPRCPPRP | 0.177 |
| RRIRNRPPRLPRPRPRPDSHPRP | -0.0854 |
| RRIRYRPPRLPRPRPRPWCNPRP | -0.123 |
| RRIRCRPPRLPRPRPRPADGPRP | -0.129 |
| RRIRPRPPRLPRPRPRPMIQPRP | 0.0205 |
| RRIRWRPPRLPRPRPRPLCLPRP | 0.949 |
| RRIRERPPRLPRPRPRPITQPRP | 0.0291 |
| RRIRKRPPRLPRPRPRPGEMPRP | 1.62 |
| RRIRQRPPRLPRPRPRPLTYPRP | -0.13 |
| RRIRKRPPRLPRPRPRPQRIPRP | 0.0286 |
| RRIRNRPPRLPRPRPRPDNQPRP | -0.323 |
| RRIRARPPRLPRPRPRPRHEPRP | 0.638 |
| RRIRIRPPRLPRPRPRPYFTPRP | -0.702 |
| RRIRNRPPRLPRPRPRPPDPPRP | 0.497 |
| RRIRSRPPRLPRPRPRPATLPRP | -0.0555 |
| RRIRARPPRLPRPRPRPDINPRP | 0.0789 |
| RRIRYRPPRLPRPRPRPRLSPRP | -0.0417 |
| RRIRYRPPRLPRPRPRPFMYPRP | -1.14 |
| RRIRDRPPRLPRPRPRPNILPRP | -0.437 |
| RRIRCRPPRLPRPRPRPSTVPRP | -0.443 |
| RRIRWRPPRLPRPRPRPYNNPRP | -0.991 |
| RRIRQRPPRLPRPRPRPKPKPRP | 0.278 |
| RRIRLRPPRLPRPRPRPRTIPRP | 0.0584 |
| RRIRGRPPRLPRPRPRPKHWPRP | 0.646 |

| Sequence | shrunken log2 fold change |
| --- | --- |
| RRIRTRPPRLPRPRPRPSLYPRP | -0.522 |
| RRIRPRPPRLPRPRPRPCQIPRP | -0.0156 |
| RRIRIRPPRLPRPRPRPRPDPRP | 0.0926 |
| RRIRSRPPRLPRPRPRPDQRPRP | 0.0901 |
| RRIRARPPRLPRPRPRPLYIPRP | -0.293 |
| RRIRYRPPRLPRPRPRPCYLPRP | -0.0778 |
| RRIRLRPPRLPRPRPRPVFHPRP | -0.143 |
| RRIRDRPPRLPRPRPRPFPAPRP | 0.0806 |
| RRIRERPPRLPRPRPRPPVAPRP | 0.658 |
| RRIRQRPPRLPRPRPRPLAHPRP | -0.0319 |
| RRIRIRPPRLPRPRPRPESCPRP | -0.0796 |
| RRIRVRPPRLPRPRPRPFMRPRP | 0.184 |
| RRIRPRPPRLPRPRPRPLNAPRP | -0.0965 |
| RRIRARPPRLPRPRPRPINQPRP | -0.195 |
| RRIRVRPPRLPRPRPRPMRIPRP | 0.218 |
| RRIRIRPPRLPRPRPRPGNIPRP | -0.479 |
| RRIRTRPPRLPRPRPRPQHKPRP | -0.0821 |
| RRIRTRPPRLPRPRPRPIGLPRP | -0.115 |
| RRIRDRPPRLPRPRPRPCREPRP | 0.123 |
| RRIRVRPPRLPRPRPRPWNEPRP | -0.0886 |
| RRIRKRPPRLPRPRPRPWEVPRP | 0.0986 |
| RRIRHRPPRLPRPRPRPNFNPRP | -0.509 |
| RRIRGRPPRLPRPRPRPASIPRP | 0.371 |
| RRIRGRPPRLPRPRPRPGTMPRP | 0.0523 |
| RRIRGRPPRLPRPRPRPSLWPRP | 0.611 |

| Sequence | shrunken log2 fold change |
| --- | --- |
| RRIRMRPPRLPRPRPRPQPNPRP | 0.546 |
| RRIRFRPPRLPRPRPRPGIDPRP | -0.0216 |
| RRIRFRPPRLPRPRPRPTSNPRP | -0.617 |
| RRIRHRPPRLPRPRPRPLQRPRP | -0.187 |
| RRIRHRPPRLPRPRPRPQTNPRP | -0.633 |
| RRIRGRPPRLPRPRPRPISMPRP | -0.0173 |
| RRIRDRPPRLPRPRPRPEAMPRP | -0.00943 |
| RRIRGRPPRLPRPRPRPWNAPRP | 0.109 |
| RRIRNRPPRLPRPRPRPWMMPRP | -0.594 |
| RRIRYRPPRLPRPRPRPRSLPRP | -0.0256 |
| RRIRLRPPRLPRPRPRPPYDPRP | -0.188 |
| RRIRWRPPRLPRPRPRPQWPPRP | 0.158 |
| RRIRARPPRLPRPRPRPWTEPRP | -0.181 |
| RRIRFRPPRLPRPRPRPQQQPRP | 0.0282 |
| RRIRHRPPRLPRPRPRPATGPRP | -0.276 |
| RRIRLRPPRLPRPRPRPHHSPRP | -0.506 |
| RRIRPRPPRLPRPRPRPYQEPRP | -0.418 |
| RRIRMRPPRLPRPRPRPFMHPRP | -0.647 |
| RRIRFRPPRLPRPRPRPHQIPRP | -0.387 |
| RRIRNRPPRLPRPRPRPGHYPRP | -0.171 |
| RRIRTRPPRLPRPRPRPHAQPRP | 0.211 |
| RRIRARPPRLPRPRPRPHKSPRP | 0.42 |
| RRIRKRPPRLPRPRPRPNDGPRP | -0.0887 |
| RRIRNRPPRLPRPRPRPPWEPRP | -0.0446 |
| RRIRIRPPRLPRPRPRPITHPRP | -0.329 |

| Sequence | shrunken log2 fold change |
| --- | --- |
| RRIRVRPPRLPRPRPRPPEPPRP | 0.382 |
| RRIRMRPPRLPRPRPRPPSGPRP | 0.525 |
| RRIRVRPPRLPRPRPRPVVAPRP | 0.17 |
| RRIRFRPPRLPRPRPRPCGFPRP | 0.0163 |
| RRIRKRPPRLPRPRPRPMMHPRP | 0.0869 |
| RRIRQRPPRLPRPRPRPEMKPRP | -0.0789 |
| RRIRNRPPRLPRPRPRPETAPRP | 0.536 |
| RRIRFRPPRLPRPRPRPNGPPRP | -0.0934 |
| RRIRTRPPRLPRPRPRPTGLPRP | -0.0841 |
| RRIRRRPPRLPRPRPRPRAEPRP | 0.572 |
| RRIRCRPPRLPRPRPRPHYVPRP | -0.78 |
| RRIRTRPPRLPRPRPRPTSEPRP | -0.126 |
| RRIRWRPPRLPRPRPRPNIWPRP | -0.153 |
| RRIRMRPPRLPRPRPRPHFSPRP | -0.194 |
| RRIRWRPPRLPRPRPRPDMYPRP | -0.389 |
| RRIRPRPPRLPRPRPRPNKIPRP | -0.203 |
| RRIRPRPPRLPRPRPRPLMSPRP | -0.443 |
| RRIRARPPRLPRPRPRPLRGPRP | 0.954 |
| RRIRVRPPRLPRPRPRPGLLPRP | -0.146 |
| RRIRRRPPRLPRPRPRPGLSPRP | -0.0549 |
| RRIRGRPPRLPRPRPRPMTEPRP | 0.0819 |
| RRIRVRPPRLPRPRPRPIRFPRP | -0.0571 |
| RRIRLRPPRLPRPRPRPCLDPRP | -0.0475 |
| RRIRYRPPRLPRPRPRPSNGPRP | 0.015 |
| RRIRKRPPRLPRPRPRPQMPPRP | 0.0482 |
